Assay results reported in paper PMC5743471 (Theranostics, 2018).

Biological target: mouse serum albumin (mouse, UniProt P07724 25-608)
Assay: SPR

Row | Binder | Kd | koff | kon
1 | ABD-iTEP (designed binder) LAEAKVLANRELDKYGVSDFYKRLINKAKTVEGVEALKLHILAALPGVGVPGGVGVPGGVGVPGGVGVPGGVGVPGGVGVPGGVGVPGGVGVPGGVGVPGGVGVPGGVGVPGGVGVPGGVGVPGGVGVPGGVGVPGGVGVPGGVGVPGGVGVPGGVGVPGGVGVPGGVGVPGGVGVPGGVGVPGGVGVPGGVGVPGGVGVPGGVGVPGGVGVPGGVGVPGGVGVPGGVGVPGGVGVPGGVGVPGGVGVPGGVGVPGGVLPGVGGVLPGVGGVLPGVGGVLPGVGGVLPGVGGVLPGVGGVLPGVGGVLPGVGGVLPGVGGVLPGVGGVLPGVGGVLPGVGGVLPGVGGVLPGVGGVLPGVGGVLPGVG | 1.41 ± 0.04 nM | 0.00305 s⁻¹ | 2.17e+06 M⁻¹ s⁻¹
2 | ABD-iTEP-pOVA (designed binder) LAEAKVLANRELDKYGVSDFYKRLINKAKTVEGVEALKLHILAALPGVGVPGGVGVPGGVGVPGGVGVPGGVGVPGGVGVPGGVGVPGGVGVPGGVGVPGGVGVPGGVGVPGGVGVPGGVGVPGGVGVPGGVGVPGGVGVPGGVGVPGGVGVPGGVGVPGGVGVPGGVGVPGGVGVPGGVGVPGGVGVPGGVGVPGGVGVPGGVGVPGGVGVPGGVGVPGGVGVPGGVGVPGGVGVPGGVGVPGGVGVPGGVGVPGGVLPGVGGVLPGVGGVLPGVGGVLPGVGGVLPGVGGVLPGVGGVLPGVGGVLPGVGGVLPGVGGVLPGVGGVLPGVGGVLPGVGGVLPGVGGVLPGVGGVLPGVGGVLPGVGGSIINFEKL | 1.4 ± 0.1 nM |  | 
